Article PMC9482650, “Quantitative fragmentomics allow affinity mapping of interactomes” (Nature Communications, 2022)

What was measured:
Assay in all cases: holdup assay
Parameters in all cases: key: below the threshold = too weak to quantify, mostly under pKd 3.1 to 4
[1] = target: CARD14, Q9BXL6
[2] = target: CNKSR3, Q6P9H4
[3] = target: GRIP2_2, Q9C0E4
[4] = target: LMO7, Q8WWI1
[5] = target: MAGI3_3, Q5TCQ9
[6] = target: MAST3, O60307
[7] = target: T1, MPDZ_13, O75970
T1 sequence (O75970 1982-2070, limits assumed, looked up): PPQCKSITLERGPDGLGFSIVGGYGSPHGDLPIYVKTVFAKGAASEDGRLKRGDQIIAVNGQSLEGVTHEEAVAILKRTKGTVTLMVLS

[8] = target: T2, MPDZ_2, O75970
T2 sequence (O75970 252-347, limits assumed, looked up): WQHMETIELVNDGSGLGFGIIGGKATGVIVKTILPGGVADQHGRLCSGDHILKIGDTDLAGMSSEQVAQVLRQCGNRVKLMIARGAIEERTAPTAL

[9] = target: T3, MPDZ_7, O75970
T3 sequence (O75970 1146-1253, limits assumed, looked up): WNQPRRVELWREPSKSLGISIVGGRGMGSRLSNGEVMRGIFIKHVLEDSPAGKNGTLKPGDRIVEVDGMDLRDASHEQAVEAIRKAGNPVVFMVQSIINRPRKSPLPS

[10] = target: T4, NHERF1_2, O14745
T4 sequence (O14745 149-244, limits assumed, looked up): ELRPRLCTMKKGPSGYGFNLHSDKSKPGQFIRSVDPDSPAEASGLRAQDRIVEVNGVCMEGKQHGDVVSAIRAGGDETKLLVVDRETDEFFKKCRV

[11] = target: NHERF2_1, Q15599
NHERF2_1, Q15599, sequence (Q15599 9-91): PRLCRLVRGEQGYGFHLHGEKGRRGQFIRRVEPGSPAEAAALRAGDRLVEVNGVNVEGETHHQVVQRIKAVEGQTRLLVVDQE

[12] = target: T5, PARD6G, Q9BYG4
T5 sequence (Q9BYG4 153-261, limits assumed, looked up): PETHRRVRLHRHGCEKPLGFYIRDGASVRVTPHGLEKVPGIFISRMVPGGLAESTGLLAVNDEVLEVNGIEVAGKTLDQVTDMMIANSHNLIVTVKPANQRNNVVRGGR

[13] = target: T6, PDLIM3, Q53GG5
T6 sequence (Q53GG5 1-94, limits assumed, looked up): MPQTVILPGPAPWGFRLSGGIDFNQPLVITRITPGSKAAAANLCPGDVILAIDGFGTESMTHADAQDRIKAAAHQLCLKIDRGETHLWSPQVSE

[14] = target: PREX1_1, Q8TCU6
PREX1_1, Q8TCU6, sequence (Q8TCU6 608-718): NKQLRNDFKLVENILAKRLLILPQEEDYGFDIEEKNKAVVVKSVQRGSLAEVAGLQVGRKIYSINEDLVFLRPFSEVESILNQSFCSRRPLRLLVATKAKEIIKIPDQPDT

[15] = target: T7, PTPN13_5, Q12923
T7 sequence (Q12923 1877-1975, limits assumed, looked up): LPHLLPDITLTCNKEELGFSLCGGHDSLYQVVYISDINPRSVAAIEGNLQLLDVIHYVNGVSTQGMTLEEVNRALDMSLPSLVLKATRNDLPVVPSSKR

[16] = target: RIMS1, Q86UR5
RIMS1, Q86UR5, sequence (Q86UR5 584-692): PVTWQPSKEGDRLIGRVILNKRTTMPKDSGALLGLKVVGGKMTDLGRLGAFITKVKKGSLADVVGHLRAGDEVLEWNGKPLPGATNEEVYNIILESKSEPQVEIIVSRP

[17] = target: T8, SHANK3, Q9BYB0
T8 sequence (Q9BYB0 641-750, limits assumed, looked up): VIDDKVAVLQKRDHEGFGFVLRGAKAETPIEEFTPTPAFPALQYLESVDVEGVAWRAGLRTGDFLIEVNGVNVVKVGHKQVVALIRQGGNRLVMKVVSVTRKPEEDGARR

[18] = target: LIMK1, P53667
LIMK1, P53667, sequence (P53667 155-268): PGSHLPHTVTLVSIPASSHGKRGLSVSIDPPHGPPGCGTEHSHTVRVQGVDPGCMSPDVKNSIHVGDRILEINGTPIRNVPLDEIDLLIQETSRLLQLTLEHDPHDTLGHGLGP

[19] = target: Q92614; settings: plain residues with an end cap or a label only (N-terminal biotin on a linker: ttds)
[20] = target: T9, CNKSR1, Q969H4
T9 sequence (Q969H4 191-295, limits assumed, looked up): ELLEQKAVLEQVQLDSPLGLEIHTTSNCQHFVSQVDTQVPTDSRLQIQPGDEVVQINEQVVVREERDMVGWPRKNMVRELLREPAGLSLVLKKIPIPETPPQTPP

[21] = target: O60759; settings: plain residues with an end cap or a label only (N-terminal biotin on a linker: ttds)
[22] = target: O75970; settings: plain residues with an end cap or a label only (N-terminal biotin on a linker: ttds)
[23] = target: Q13368; settings: plain residues with an end cap or a label only (N-terminal biotin on a linker: ttds)
[24] = target: Q6ZWJ1; settings: plain residues with an end cap or a label only (N-terminal biotin on a linker: ttds)
[25] = target: Q96HC4; settings: plain residues with an end cap or a label only (N-terminal biotin on a linker: ttds)
[26] = target: Q9C0E4; settings: plain residues with an end cap or a label only (N-terminal biotin on a linker: ttds)
[27] = target: Q9NPB6; settings: plain residues with an end cap or a label only (N-terminal biotin on a linker: ttds)
[28] = target: Q9UDY2; settings: plain residues with an end cap or a label only (N-terminal biotin on a linker: ttds)
[29] = target: Q9ULJ8; settings: plain residues with an end cap or a label only (N-terminal biotin on a linker: ttds)
[30] = target: Q9Y3R0; settings: plain residues with an end cap or a label only (N-terminal biotin on a linker: ttds)
[31] = plain residues with an end cap or a label only (N-terminal biotin on a linker: ttds)
[32] = plain residues with an end cap or a label only (N-terminal biotin on a linker: none)

Measured: pKd

MAST3, O60307, sequence (O60307 945-1048): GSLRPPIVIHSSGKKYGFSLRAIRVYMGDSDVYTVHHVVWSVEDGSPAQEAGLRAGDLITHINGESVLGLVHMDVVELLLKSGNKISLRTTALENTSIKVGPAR
LMO7, Q8WWI1, sequence (Q8WWI1 1037-1138): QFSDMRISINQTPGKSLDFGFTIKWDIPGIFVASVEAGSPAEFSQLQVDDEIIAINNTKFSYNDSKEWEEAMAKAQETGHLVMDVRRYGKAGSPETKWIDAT
CARD14, Q9BXL6, sequence (Q9BXL6 558-663): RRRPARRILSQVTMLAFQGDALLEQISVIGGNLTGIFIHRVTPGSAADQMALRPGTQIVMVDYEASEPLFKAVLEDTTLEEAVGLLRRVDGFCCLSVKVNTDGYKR
CNKSR3, Q6P9H4, sequence (Q6P9H4 203-303): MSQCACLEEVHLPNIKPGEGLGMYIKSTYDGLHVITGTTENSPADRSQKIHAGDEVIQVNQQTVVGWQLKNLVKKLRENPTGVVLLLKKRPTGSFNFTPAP
GRIP2_2, Q9C0E4, sequence (Q9C0E4 137-245): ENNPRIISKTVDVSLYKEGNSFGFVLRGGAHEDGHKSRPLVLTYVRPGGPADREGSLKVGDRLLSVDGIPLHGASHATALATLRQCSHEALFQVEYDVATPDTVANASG
MAGI3_3, Q5TCQ9, sequence (Q5TCQ9 572-655): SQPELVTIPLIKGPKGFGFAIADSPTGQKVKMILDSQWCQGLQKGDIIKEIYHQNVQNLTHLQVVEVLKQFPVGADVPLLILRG

SEKHFRETEV [HTLV1-TAX1, P03409]
3.93: [12]; [31]
4.12: [13]; [31]
4.77: [7]; [31]
4.36: [5]; [31]
below the threshold: [1]; [31] | [2]; [31] | [3]; [31] | [4]; [31] | [6]; [31] | [8]; [31] | [10]; [31] | [14]; [31] | [15]; [31] | [16]; [31] | [17]; [31]
4.44: [9]; [31]
3.95: [11]; [31]

DEDQHTQITKV [PTEN, P60484]
3.71: [9]; [31]
below the threshold: [1]; [31] | [2]; [31] | [18]; [31] | [4]; [31] | [5]; [31] | [8]; [31] | [10]; [31] | [11]; [31] | [12]; [31] | [13]; [31] | [14]; [31] | [15]; [31]
3.59: [6]; [31]

TGDTLEKFVEGL [CBP, Q92793]
below the threshold: [1]; [31] | [2]; [31] | [18]; [31] | [5]; [31] | [6]; [31] | [7]; [31] | [8]; [31] | [9]; [31] | [13]; [31] | [15]; [31] | [19] | [17]; [31]
3.84: [11]; [31]
3.96: [10]; [31]
3.82: [12]; [31]
4.22: [14]; [31]

HIVEALETDV [PBK, Q96KB5]
4.63: [18]; [31]
below the threshold: [1]; [31] | [20]; [31] | [2]; [31] | [3]; [31] | [4]; [31] | [6]; [31] | [7]; [31] | [8]; [31] | [9]; [31] | [10]; [31] | [11]; [31] | [21] | [22] | [12]; [31] | [13]; [31] | [14]; [31] | [15]; [31] | [23] | [24] | [25] | [26] | [27] | [28] | [29] | [30] | [16]; [31] | [17]; [31]
4.33: [5]; [31]

DSKPPLPPDEWV [MERS-E, K9N5R3]
4.38: [16]; [32]
below the threshold: [1]; [32] | [20]; [32] | [2]; [32] | [3]; [32] | [18]; [32] | [4]; [32] | [5]; [32] | [6]; [32] | [7]; [32] | [8]; [32] | [10]; [32] | [11]; [32] | [12]; [32] | [13]; [32] | [14]; [32] | [15]; [32] | [17]; [32]
3.83: [9]; [32]

RRVRKLPSTTL [RPS6KA1, Q15418]
4.14: [17]; [31]
below the threshold: [1]; [31] | [20]; [31] | [2]; [31] | [3]; [31] | [18]; [31] | [4]; [31] | [5]; [31] | [6]; [31] | [7]; [31] | [8]; [31] | [9]; [31] | [10]; [31] | [11]; [31] | [12]; [31] | [13]; [31] | [16]; [31]
3.84: [15]; [31]
